Experimental data: patent publication US20160209421A1 (UNIVERSITY OF TOKYO, published 2016)
Bridge positions count the residues as written; N and C are the ends. Square brackets hold non-standard residues; d marks the D form. * marks the point of attachment. chloroacetamidine = chloroacetamidine warhead on ornithine δ-NH2, N=C(CCl)*; Ahp(2) = CCCCC[C@H](N)C(=O)O; Orn = NCCC[C@H](N)C(=O)O

How the values were obtained:
His-PAD4 = target: T1, His-PAD4 (human, UniProt Q9UM07 1-663); experiment: SPR (Biacore T100, Ni-NTA sensor chip, His-PAD4 immobilized, peptide injected, 25 C)
T1 construct: Immobilised on a Ni-NTA sensor chip for SPR; No other PAD4 is described; also called peptidyl arginine deaminase 4; not shown: His tag
Protocol: Analysis of a reaction rate was performed at 25° C. using Biacore T100 instrument (GE healthcare) and a Ni-NTA sensor chip. His-PAD4 was immobilized on a chip surface. In any experiment, modified HBS-EP+(10 mM HEPES-KOH [pH 7.4], 150 mM NaCl, 50 μM EDTA, 0.05% Tween 20, 0.1% DMSO) was used as a running buffer. The reaction rate data were corrected by injecting five peptides having respectively different concentrations for one minute at a flow rate (10 mM HEPES-KOH [pH 7.4], 150 mM NaCl, 50 μM EDTA, 0.05% Tween 20, 0.1% DMSO). Peptide dissociation was performed for one minute during injection and for 3 minutes after the last injection.
Background binding was monitored by performing blank buffer injection twice before sample injection and once after sample injection in order to double reference with the surface of a negative control having no His-PAD4 bound thereto but having nickel. The binding sensorgram, the binding sensorgram was analyzed using the Biacore software.

Human PAD4 = Human PAD4 (human, UniProt Q9UM07 1-663); experiment: cell-based or functional assay
Chain of Human PAD4 (Q9UM07 whole entry): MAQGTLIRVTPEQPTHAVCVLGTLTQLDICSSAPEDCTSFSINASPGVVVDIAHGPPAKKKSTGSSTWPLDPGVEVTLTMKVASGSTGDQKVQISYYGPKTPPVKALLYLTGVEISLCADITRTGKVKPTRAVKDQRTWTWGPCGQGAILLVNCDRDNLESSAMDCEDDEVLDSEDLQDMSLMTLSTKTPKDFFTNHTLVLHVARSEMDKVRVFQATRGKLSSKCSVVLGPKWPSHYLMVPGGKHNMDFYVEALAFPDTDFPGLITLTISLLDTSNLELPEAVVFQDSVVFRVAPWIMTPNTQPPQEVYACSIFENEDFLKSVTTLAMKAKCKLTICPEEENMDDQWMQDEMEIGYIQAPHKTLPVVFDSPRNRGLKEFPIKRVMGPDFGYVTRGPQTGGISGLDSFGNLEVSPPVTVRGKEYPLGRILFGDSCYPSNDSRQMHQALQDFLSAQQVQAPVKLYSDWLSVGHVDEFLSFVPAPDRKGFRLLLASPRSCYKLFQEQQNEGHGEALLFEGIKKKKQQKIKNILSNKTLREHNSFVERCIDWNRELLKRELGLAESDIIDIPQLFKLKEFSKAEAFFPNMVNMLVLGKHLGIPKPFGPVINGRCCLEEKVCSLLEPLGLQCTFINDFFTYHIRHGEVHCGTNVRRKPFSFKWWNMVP

T1 sequence (Q9UM07 whole entry): as above

| Kd (His-PAD4) | koff (His-PAD4) | kon (His-PAD4) | IC50 (read off the curve) (Human PAD4) | Binder |
| --- | --- | --- | --- | --- |
| 55 nM | 0.00664 s⁻¹ | 121000 M⁻¹ s⁻¹ | – | {CH2CO}-[dF]NA[Ahp(2)]YPYRPP[Ahp(2)]TSC-NH2 (thioether N-14; SMILES CCCCC[C@@H]1NC(=O)[C@H](C)NC(=O)[C@H](CC(N)=O)NC(=O)[C@@H](Cc2ccccc2)NC(=O)CSC[C@@H](C(N)=O)NC(=O)[C@H](CO)NC(=O)[C@H]([C@@H](C)O)NC(=O)[C@H](CCCCC)NC(=O)[C@@H]2CCCN2C(=O)[C@@H]2CCCN2C(=O)[C@H](CCCNC(=N)N)NC(=O)[C@H](Cc2ccc(O)cc2)NC(=O)[C@@H]2CCCN2C(=O)[C@H](Cc2ccc(O)cc2)NC1=O) [VB1C12 peptide] |
| 38.7 nM | 0.00356 s⁻¹ | 92100 M⁻¹ s⁻¹ | – | {CH2CO}-[dF]DA[Ahp(2)]YPFRPP[Ahp(2)]AHC-NH2 (thioether N-14; SMILES CCCCC[C@@H]1NC(=O)[C@H](C)NC(=O)[C@H](CC(=O)O)NC(=O)[C@@H](Cc2ccccc2)NC(=O)CSC[C@@H](C(N)=O)NC(=O)[C@H](Cc2c[nH]cn2)NC(=O)[C@H](C)NC(=O)[C@H](CCCCC)NC(=O)[C@@H]2CCCN2C(=O)[C@@H]2CCCN2C(=O)[C@H](CCCNC(=N)N)NC(=O)[C@H](Cc2ccccc2)NC(=O)[C@@H]2CCCN2C(=O)[C@H](Cc2ccc(O)cc2)NC1=O) [VB1C20 peptide] |
| – | – | – | ~8000 nM | {CH2CO}-[dF]NA[Ahp(2)]YPY[Orn](chloroacetamidine)PP[Ahp(2)]TSC-NH2 (thioether N-14; SMILES CCCCC[C@@H]1NC(=O)[C@H](C)NC(=O)[C@H](CC(N)=O)NC(=O)[C@@H](Cc2ccccc2)NC(=O)CSC[C@@H](C(N)=O)NC(=O)[C@H](CO)NC(=O)[C@H]([C@@H](C)O)NC(=O)[C@H](CCCCC)NC(=O)[C@@H]2CCCN2C(=O)[C@@H]2CCCN2C(=O)[C@H](CCCNC(=N)CCl)NC(=O)[C@H](Cc2ccc(O)cc2)NC(=O)[C@@H]2CCCN2C(=O)[C@H](Cc2ccc(O)cc2)NC1=O) [VB1C12-Cl-amidine analog] |
